Test results from paper PMC2173304.

Target: peptide corresponding to the cytoplasmic tail of lysosomal acid phosphatase (LAP) (UniProt P11117)
Assay: SPR

UniProt P11117, sequence (P11117 402-423): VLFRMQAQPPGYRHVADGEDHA

- fold decrease in affinity against untreated AP2: > 4 fold
Substance: AP2 complex from pig brain, dephosphorylated with calf intestinal alkaline phosphatase
